{
  "source": "paper PMC8580320",
  "about": "(Science Advances, 2021)",
  "proteins": {"B1": {"name": "MtaLonC-S582A (enzyme)", "chain": "MRLSYEALEWRTPIENSTEPVSLPPPPPFFGQERAREALELAIRGGFHAYLVGPPSLGKHEALLAYLSTQSVETPPDLLYVPLSERKVAVLTLPSGQEIHLAEAVEGLLLEVNRLDELFRQGSFLREKTQLEARFKEAREQQLEALRREAQEAGFALSTNGERLELTGPGPVPAELSARLEEVTLGSLAASAELEVALRRLRRDWALHYLNNRFEPLFQRFPQARAYLEALRARLARYAETGEPLDPAQWRPNLLTSSSSGTPPPIVYEPYATAPRLFGRLDYLVDRGVWSTNVSLIRPGAVHRAQGGYLILDALSLKREGTWEAFKRALRNGQVEPVTEPQAPAGLEVEPFPIQMQVILVGTPEAFEGLEEDPAFSELFRIRAEFSPTLPASPENCTALGGWLLAQGFQLTQGGLTRLYDEARRMAEQRDRMDARLVEIRALAEEAAVLGGGLLTAESVEQAIAAREHRSFLSEEEFLRAVQEGVIRLRTTGRAVGEVNSLVVVEAAPYWGRPARLTARAAPGRDHLISIDREAGLGGQIFHKAVLTLAGYLRSRYIEHGSLPVTISLAFEQNYVSIEGDAAGLAELVAALSAIGNLPLRQDLAVTGAVDQTGKVLAVGAINAKVEGFFRVCKALGLSGTQGVILPEANLANLTLRAEVLEAVRAGQFHIYAVETAEQALEILAGARMEGFRGLQEKIRAGLEAFARLEEGHDKEDREKLAAALEHHHHHH"}},
  "molecular_target": "the molecule itself",
  "assay": "crystal structure",
  "data": [
    {"protein": "B1", "values": [
      {"measurement": "stoichiometry N", "result": 6}
    ]}
  ]
}
